Assay results from patent US20110085970A1 (published 2011).

T1: human O8E (B7-H4) expressed on cells (human, UniProt Q7Z7D3 25-282)
T1 construct: Full length O8E on transfected HEK, CHO and SKOV3 cells, or endogenous on SKBR3 and ZR-75 cells and in human tumour biopsies; also called B7S1; B7x
T1 sequence: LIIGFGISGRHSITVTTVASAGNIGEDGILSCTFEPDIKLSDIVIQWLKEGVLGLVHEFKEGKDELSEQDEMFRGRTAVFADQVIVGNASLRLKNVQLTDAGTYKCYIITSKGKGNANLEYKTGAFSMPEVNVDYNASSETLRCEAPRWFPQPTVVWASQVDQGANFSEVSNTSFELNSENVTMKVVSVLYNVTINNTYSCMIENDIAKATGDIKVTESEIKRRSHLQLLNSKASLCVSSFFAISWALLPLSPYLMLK

T2: Recombinant Penta-B7H4 protein with a C-9 tag (human, UniProt Q7Z7D3 25-259)
T2 construct: also called Penta-O8E; Penta-B7H4-C9; not shown: 'Penta' part and C-9 tag
T2 sequence: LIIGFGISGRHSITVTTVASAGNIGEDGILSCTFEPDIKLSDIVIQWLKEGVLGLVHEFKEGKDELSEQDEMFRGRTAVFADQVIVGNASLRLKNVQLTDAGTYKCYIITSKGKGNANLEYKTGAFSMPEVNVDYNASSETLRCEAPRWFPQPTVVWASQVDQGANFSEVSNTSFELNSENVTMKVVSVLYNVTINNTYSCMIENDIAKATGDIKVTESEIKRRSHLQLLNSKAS

B1: 1G11 human monoclonal antibody (anti-O8E / anti-B7-H4) (antibody, V domains shown)
VH: QVQLQQWGAGLLKPSETLSLTCAVYGGSFSDYFWTWIRQPPGKGLEWIGEINHSGTTNYNPSLKSRVTISADTSKNQFSLRLSSVTAADTAVYYCARLSSWSNWAFEYWGQGTLVTVSS
VL: EIVLTQFPGTLSLSPGERATLSCRASQSVSSTYLAWYQQKPGQAPRVLIYGASRRATGIPDRFSGSGSGTDFTLTISRLEPEDFAVYYCQQYGSSPLTFGGGTKVEIK
notes: Hybridoma-derived fully human IgG with a kappa light chain (VK A27); also called 1G11.H11-FITC; 1G11.H1
B2: 12E1 human monoclonal antibody (anti-O8E / anti-B7-H4) (antibody, V domains shown)
VH: EVQLVESGGGLVQPGRSLRLSCVASGFTFDDYAMHWVRQAPGKGLEWVSGISWNSGSIGYADSVKGRFTISRDNAKNSLYLQMNSLRAEDTALYYCTKALYGSGSSDFYYYGMDVWGQGTTVAVSS
VL: EIVLTQSPATLSLSPGERATLSCRASQSVSSYLAWYQQKPGQAPRLLIYDASNRATGIPARFSGSGSGTDFTLTISSLEPEDFAVYYCQQRRTFGQGTKVEIK
notes: Hybridoma-derived fully human IgG with a kappa light chain (VK L6/JK1); also called 12E1.G9
B3: 13D12 human monoclonal antibody (anti-O8E / anti-B7-H4) (antibody, V domains shown)
VH: QVQLQQWGAGLLKPSETLSLTCAVYGGSFSGYYWSWIRQPPGKGLEWIGKINHSGSTNYNPSLKSRVTISVDTSKNQFSLKLNSVTAADTAVYYCARELRYFENYYYGMDVWGQGTTVTVSS
VL: not shown
notes: Hybridoma-derived fully human IgG with a kappa light chain (VK A27); also called 13D12.G10

What was measured:
[1] = target: T1, human O8E (B7-H4) expressed on cells; test: titration of labelled antibody on O8E-transfected cells (Scatchard set-up), sigmoidal dose response fit
Procedure: HEK cells were transfected with full length O8E using standard techniques and grown in RPMI media containing 10% fetal bovine serum (FBS). […] Millipore plates (MAFB NOB) were coated with 1% nonfat dry milk in water and stored a 4° C. overnight. The plates were washed three times with 0.2 ml of binding buffer. Fifty microliters of buffer alone was added to the maximum binding wells (total binding). Twenty-five microliters of buffer alone was added to the control wells (non-specific binding). Varying concentration of ¹²⁵I-anti-O8E antibody was added to all wells in a volume of 25 μl. (In some cases FITC labeled antibodies were used for the titration since unlabeled material was not available, binding may be compromised in these instances.) Varying concentrations of unlabeled antibody at 100 fold excess was added in a volume of 25 μl to control wells and 25 μl of O8E transfected CHO cells (2×10⁶ cells/ml) in binding buffer were added to all wells. The plates were incubated for 2 hours at 200 RPM on a shaker at 4° C. At the completion of the incubation the Millipore plates were washed three times with 0.2 ml of cold wash buffer (24 mM Tris pH 7.2, 500 mM NaCl, 2.7 mM KCl, 2 mM Glucose, 1 mM CaCl₂, 1 mM MgCl₂, 0.1% BSA.). The filters were removed and counted in a gamma counter. […]

[2] = target: T2, Recombinant Penta-B7H4 protein with a …; test: ELISA: anti-mouse Fc coat, monoclonal anti-C9 at 0.6 ug/ml, Penta-B7H4 titrated (varied component), human antibody fixed at 1 ug/ml
[3] = target: T1, human O8E (B7-H4) expressed on cells; test: titration of labelled antibody on O8E-transfected cells (Scatchard set-up), sigmoidal dose response fit; BOTTOM and TOP fixed for incomplete curve

Binder | EC50 [1] [nM] | EC50 (read off the curve) [2] [µg/mL] | EC50 [3] [nM]
B1 | 1.69 |  | 
B2 |  | ~0.05 | ~19.8
B3 | 0.746 |  | 
